For assay [1], the target named is soluble BTN2A1^WT–BTN3A1^Glu106-Ala zipper ectodomain complex (human) (UniProt Q7KYR7). Briefly: SPR.
Assay [2] has as its target soluble BTN2A1–BTN3A1–zipper ectodomain complex (wild type) (human) (UniProt Q7KYR7). Briefly: SPR.
Assay [3] addresses disulfide-linked BTN2A1 ectodomain homodimer (Cys247, leucine zippers) (human) (UniProt Q7KYR7). The assay is described as follows: SPR.
For assay [4], the target named is soluble BTN3A1 ectodomain (IgV–IgC), homodimeric (human) (UniProt O00481). The assay is described as follows: SPR.
The target of assay [5] is soluble BTN2A1–BTN3A1–zipper ectodomain complex (wild type) (human) (UniProt Q7KYR7). The assay is described as follows: SPR. This is another data set of the same source.
The target in assay [6] is BTN3A1 Phe26-Ala on transfected NIH-3T3 cells (human) (UniProt O00481). Briefly: flow cytometry on cells.
The target of assay [7] is BTN3A1 Ser42-Ala on transfected NIH-3T3 cells (human) (UniProt O00481). Briefly: flow cytometry on cells.
Assay [8] has as its target BTN3A1 Leu96-Ala on transfected NIH-3T3 cells (human) (UniProt O00481). Briefly: flow cytometry on cells.
Assay [9] addresses BTN3A1 Lys37-Ala on transfected NIH-3T3 cells (human) (UniProt O00481). The assay is described as follows: flow cytometry on cells.

Where two headings read alike, the source gives them in different places.

On to “soluble Vγ9Vδ2^+ γδTCR clone G115, wild type”, for which the Kd in assay [1] is 37 µM; in assay [2], 85 µM; in assay [3], 99 µM; in assay [4], > 4000 µM; in assay [5], 79 µM. Further, the reduction of G115 tetramer staining against wild-type BTN3A1 in assay [6], in [7], in [8] and in [9] was > 90% each time.
For soluble G115 Vγ9Vδ2^+ TCR Lys53δ-Ala, the Kd in assay [4] is > 1200 µM; in [5], 46 µM.
In turn, “monomeric BTN3A1 IgV domain (domain or fragment)” showed a Kd in assay [3] of 1100 µM.
Substance soluble G115 Vγ9Vδ2^+ TCR His85γ-Ala registered a Kd in [5] of 740 µM.
In turn, “soluble BTN2A1 ectodomain lacking Cys247 (monomeric) (from UniProt Q7KYR7 29-248) (domain or fragment)” displayed a dissociation constant (Kd) in assay [4] of 1800 µM.

These data come from article doi:10.1101/2023.08.30.555639.
